Target: T1, HLA-A*01 (human)
T1 construct: MHC monomer made peptide-receptive by UV cleavage of a UV-sensitive ligand; also called peptide-receptive MHC class I monomer
Experiment: UV peptide-exchange ELISA; ++++ = yield >75%
Excerpt: Candidate peptides for T cell based therapies according to the present invention were further tested for their MHC binding capacity (affinity). The individual peptide-MHC complexes were produced by UV-ligand exchange, where a UV-sensitive peptide is cleaved upon UV-irradiation, and exchanged with the peptide of interest as analyzed. Only peptide candidates that can effectively bind and stabilize the peptide-receptive MHC molecules prevent dissociation of the MHC complexes. To determine the yield of the exchange reaction, an ELISA was performed based on the detection of the light chain (β2m) of stabilized MHC complexes. The assay was performed as generally described in Rodenko et al. (Rodenko et al., 2006).
96 well MAXISorp plates (NUNC) were coated over night with 2 ug/ml streptavidin in PBS at room temperature, washed 4× and blocked for 1 h at 37° C. in 2% BSA containing blocking buffer. […] Peptide-MHC monomers of the UV-exchange reaction were diluted 100-fold in blocking buffer. Samples were incubated for 1 h at 37° C., washed four times, incubated with 2 ug/ml HRP conjugated anti-β2m for 1h at 37° C., washed again and detected with TMB solution that is stopped with […]. Absorption was measured at 450 nm.

Peptide exchange yield, > 75%:
FSDNDKLYLY [FSDNDKLYLY (SEQ ID NO: 407)], QTDDTWRTEY [QTDDTWRTEY (SEQ ID NO: 435)], GSDHQSPSSSSY [GSDHQSPSSSSY (SEQ ID NO: 410)], AAEIGDKSWLY [AAEIGDKSWLY (SEQ ID NO: 134)], GTELLSLVY [GTELLSLVY (SEQ ID NO: 150)], QTDHPQPILDRY [QTDHPQPILDRY (SEQ ID NO: 168)], YSDSLVQKGY [YSDSLVQKGY (SEQ ID NO: 451)], SADDIRGIQSLY [SADDIRGIQSLY (SEQ ID NO: 174)], GTEFTTILY [GTEFTTILY (SEQ ID NO: 148)], GTEFTTVLY [GTEFTTVLY (SEQ ID NO: 149)], QTDCAPNNGY [QTDCAPNNGY (SEQ ID NO: 434)], MIDVTKSYY [MIDVTKSYY (SEQ ID NO: 422)], LTEDKETLQY [LTEDKETLQY (SEQ ID NO: 420)], DSDSCHFNY [DSDSCHFNY (SEQ ID NO: 138)], LLDTAQKNLY [LLDTAQKNLY (SEQ ID NO: 416)], RTEFNLNQY [RTEFNLNQY (SEQ ID NO: 173)], YVDAVLGKGHQY [YVDAVLGKGHQY (SEQ ID NO: 452)], NTEDSSMSGYLY [NTEDSSMSGYLY (SEQ ID NO: 429)], ASEDSVLLY [ASEDSVLLY (SEQ ID NO: 135)], NSDEQKITEMVY [NSDEQKITEMVY (SEQ ID NO: 427)], RLDTPLYFSY [RLDTPLYFSY (SEQ ID NO: 169)], YLDRGTGNVSFY [YLDRGTGNVSFY (SEQ ID NO: 449)], TLDSALNAASYY [TLDSALNAASYY (SEQ ID NO: 441)], QIDTGENLY [QIDTGENLY (SEQ ID NO: 433)], NSELSCQLY [NSELSCQLY (SEQ ID NO: 428)], YSDDGQKWTVY [YSDDGQKWTVY (SEQ ID NO: 450)], VTAQVVGTERY [VTAQVVGTERY (SEQ ID NO: 446)], RSDDTAVYY [RSDDTAVYY (SEQ ID NO: 170)], GTVYEDLRY [GTVYEDLRY (SEQ ID NO: 411)], ILDEVIMGY [ILDEVIMGY (SEQ ID NO: 412)], ISDRYYTALY [ISDRYYTALY (SEQ ID NO: 413)], LLDPNPHMY [LLDPNPHMY (SEQ ID NO: 155)], TTDFPSESSFEY [TTDFPSESSFEY (SEQ ID NO: 443)], STDGKHWWEY [STDGKHWWEY (SEQ ID NO: 437)], LTELLERAAFY [LTELLERAAFY (SEQ ID NO: 421)], LMDRPIFY [LMDRPIFY (SEQ ID NO: 157)], NTEGLHHLY [NTEGLHHLY (SEQ ID NO: 430)], TSDFSRFTNY [TSDFSRFTNY (SEQ ID NO: 442)], LSDLLKQGY [LSDLLKQGY (SEQ ID NO: 158)], LSDTSVIQFY [LSDTSVIQFY (SEQ ID NO: 159)], NLDAVHDITVAY [NLDAVHDITVAY (SEQ ID NO: 423)], QTETGTPYMLY [QTETGTPYMLY (SEQ ID NO: 436)], ATSKFMEFY [ATSKFMEFY (SEQ ID NO: 137)], RSDPVTLNVLY [RSDPVTLNVLY (SEQ ID NO: 171)], NLDIIQQEY [NLDIIQQEY (SEQ ID NO: 425)], LSELKPMSY [LSELKPMSY (SEQ ID NO: 419)], NTSDMMGRMSY [NTSDMMGRMSY (SEQ ID NO: 431)], LLEDKHFQSY [LLEDKHFQSY (SEQ ID NO: 417)], FVDPLVTNY [FVDPLVTNY (SEQ ID NO: 409)]

Reference: patent publication US11352401
